Reference: patent publication US20200216495A1 (ADRX, published 2020)
Several values for one entry are separate records, joined by “and”; a condition that tells them apart may be missing. Identical values can stand only once. Square brackets hold non-standard residues; d marks the D form. Ends that are not written are not given here.

Target: Tau40 P301L protein (human)
Assay: cell-based or functional assay

Row | IC50, Tau40 assay (ThT) | Binder
1 | 3.71 µM and 4.76 µM | [dR][dL][dR][dV][dR][dW] [rlrvrw]
2 | 3.33 µM | [dW][dN][dL][dN][dV][dR][dW] [wnlnvrw]
3 | 5.48 µM and 5.5 µM | [dW][dR][dL][dR][dV][dW] [wrlrvw]
4 | 5.5 µM | [dW][dR][dH][dK][dV][dR][dW] [wrhkvrw]
5 | 3.29 µM | [dW][dK][dV][dH][dI][dQ][dH][dW] [wkvhiqhw]
6 | 3.32 µM | [dL][dK][dI][dR][dI][dH][dY][dE] [lkirihye]
7 | 3.33 µM | [dW][dR][dL][dR][dT][dH][dW] [wrlrthw]
8 | 4.53 µM | [dL][dK][dI][dR][dI][dE][dH][dY] [lkiriehy]
9 | 3.56 µM and 7.39 µM | [dW][dK][dL][dK][dL][dR][dW] [wklklrw]
10 | 3.38 µM and 3.59 µM and 3.81 µM and 4.79 µM | [dR][dL][dK][dV][dR][dW] [rlkvrw]
11 | 3.59 µM | [dR][dI][dH][dY][dH][dI][dK][dL] [rihyhikl]
12 | 5.51 µM | [dW][dL][dK][dV][dR][dW] [wlkvrw]
13 | 4.86 µM | [dW][dN][dL][dK][dV][dN][dW] [wnlkvnw]
14 | 4.13 µM | [dW][dK][dL][dK][dL][dR][dW][dW] [wklklrww]
15 | 4.71 µM | [dY][dH][dV][dK][dF][dR][dH][dW] [yhvkfrhw]
16 | 4.57 µM | [dL][dK][dI][dF][dI][dH][dY][dH] [lkifihyh]
17 | 4.95 µM | [dL][dK][dI][dR][dI][dH] [lkirih]
18 | 3.76 µM and 5.41 µM | [dW][dR][dL][dR][dI][dW][dW][dW] [wrlriwww]
19 | 3.62 µM | [dW][dL][dK][dI][dV][dW] [wlkivw]
20 | 3.33 µM | [dL][dK][dI][dF][dI][dW][dY][dH] [lkifiwyh]
21 | 3.43 µM | [dR][dL][dR][dL][dK][dW] [rlrlkw]
22 | 4.69 µM | [dY][dR][dL][dK][dV][dR][dW] [yrlkvrw]
23 | 4.09 µM and 5.61 µM | [dW][dW][dL][dR][dI][dH][dW][dW] [wwlrihww]
24 | 5.03 µM | [dW][dH][dV][dR][dI][dR][dH][dV] [whvrirhv]
25 | 3.7 µM | [dR][dW][dK][dV][dR][dW] [rwkvrw]
26 | 3.23 µM | [dW][dR][dL][dK][dV][dR][dW][dW] [wrlkvrww]
27 | 3.33 µM | [dW][dR][dA][dR][dI][dH][dW] [wrarihw]
28 | 3.54 µM | [dW][dK][dV][dQ][dV][dR][dY][dW] [wkvqvryw]
29 | 5.13 µM | [dY][dR][dV][dR][dI][dQ][dH][dI] [yrvriqhi]
30 | 3.54 µM | [dW][dW][dL][dK][dL][dR][dW] [wwlklrw]

Continued, binder first:

Row | Binder | IC50, Tau40 assay (ThT)
31 | [dF][dR][dL][dW][dI][dH][dW][dF] [frlwihwf] | 4.39 µM and 6.88 µM
32 | [dF][dH][dL][dK][dI][dR][dH][dH] [fhlkirhh] | 3.29 µM and 3.36 µM
33 | [dL][dE][dI][dR][dI][dH][dY][dH] [leirihyh] | 4.07 µM
34 | [dF][dR][dL][dW][dI][dH][dW] [frlwihw] | 3.33 µM
35 | [dL][dK][dI][dE][dI][dH][dY][dH] [lkieihyh] | 3.64 µM
36 | [dL][dA][dI][dR][dI][dH][dY] [lairihy] | 3.98 µM
37 | [dK][dV][dR][dW][dW][dW][dR][dL] [kvrwwwrl] | 3.84 µM
38 | [dF][dE][dI][dR][dL][dW][dH][dH] [feirlwhh] | 3.38 µM
39 | [dF][dR][dI][dR][dL][dR][dW] [frirlrw] | 3.23 µM
40 | [dI][dH][dY][dH][dR][dI][dK][dL] [ihyhrikl] | 5.12 µM
41 | [dK][dW][dR][dW][dY][dR][dR] [kwrwyrr] | 3.55 µM
42 | [dF][dR][dV][dK][dI][dE][dH][dW] [frvkiehw] | 5.25 µM
43 | [dL][dK][dI][dE][dI][dH][dY] [lkieihy] | 3.32 µM
44 | [dK][dI][dR][dI][dH][dY][dH][dL] [kirihyhl] | 4.59 µM
45 | [dF][dK][dL][dW][dL][dR][dW][dF] [fklwlrwf] | 4.19 µM and 7.03 µM
46 | [dF][dE][dL][dK][dL][dR][dW][dH] [felklrwh] | 4.94 µM and 5.3 µM

Row | Binder | IC50, Tau40 assay (ThT)
47 | [dK][dL][dK][dW][dL][dW] [klkwlw] | 4.41 µM
48 | [dL][dE][dI][dK][dI][dR][dH][dW] [leikirhw] | 5.38 µM and 8.72 µM
49 | [dE][dR][dL][dK][dV][dR][dW][dW] [erlkvrww] | 3.36 µM
50 | [dF][dR][dI][dK][dL][dK][dW][dH] [friklkwh] | 3.88 µM and 3.9 µM
51 | [dF][dK][dI][dE][dL][dH][dW][dH] [fkielhwh] | 3.37 µM and 3.44 µM
52 | [dF][dR][dL][dR][dI][dH][dW][dF] [frlrihwf] | 3.77 µM and 7.09 µM
53 | [dH][dR][dF][dK][dV][dQ][dL][dY] [hrfkvqly] | 4.03 µM
54 | [dF][dE][dI][dR][dL][dH][dH][dW] [feirlhhw] | 4.2 µM
55 | [dH][dK][dI][dR][dI][dH][dY][dH] [hkirihyh] | 3.84 µM
56 | [dL][dH][dI][dK][dL][dK][dH][dF] [lhiklkhf] | 4.44 µM and 4.64 µM
57 | [dF][dH][dL][dH][dL][dK][dH][dW] [fhlhlkhw] | 3.74 µM
58 | [dA][dK][dI][dR][dI][dH][dY][dH] [akirihyh] | 3.54 µM
59 | [dL][dD][dL][dR][dF][dK][dL][dY] [ldlrfkly] | 3.43 µM
60 | [dK][dI][dR][dI][dH][dY][dH] [kirihyh] | 4.92 µM
61 | [dF][dK][dL][dE][dI][dR][dY][dH] [fkleiryh] | 3.38 µM
